Test results taken from US20210386829A1, “COMPOSITIONS AND METHODS FOR MODULATING CGRP SIGNALING TO REGULATE INNATE LYMPHOID CELL INFLAMMATORY RESPONSES” (The Broad Institute, Inc., priority 2018, published 2021).

System: lung-resident ILCs
Assay: SMART-Seq2 plate-based scRNA-seq of lung-resident ILCs from PBS-, IL-25- or IL-33-treated mice, differential gene expression by logistic regression (Tables 3, 4)
Format: in vivo, mouse
Excerpt: Mice and in vivo ILC activation. C57B1/6J mice were purchased from the Jackson Laboratory. Nmur1-LacZ reporter mice with a LacZ cassette knocked into the Nmur1 locus were rederived from Nmur1^tm1.1(KOMP)Vlcg sperm obtained from the trans-NIH Knock-Out Mouse Project (KOMP) Repository. NMU-deficient mice (NMU-KO) were rederived from B6.129S2-Nmu<tm1Mko> embryos from the RIKEN BioResource Center. For experiments with Nmur1-LacZ (Nmur1-KO) and NMU-KO mice, littermates that were either homozygous or heterozygous for the wild type allele were used as controls. Mice were housed under specific-pathogen-free conditions. For experiments, mice were matched for sex and age, and most mice were 6-10 weeks old. Where indicated, mice were anesthetized with Isoflurane and treated intranasally with the indicated stimuli (500 ng IL-25, 500 ng IL-33, or 20 μg Neuromedin U) daily for three consecutive days. The total administered volume was 20 μl for all conditions. Mice were randomly assigned to treatment groups after matching for sex and age. […] Mice were treated intranasally with 10 μg HDM on day 0, 7, 8, and 9, prior to sacrifice on day 10. All experiments were conducted in accordance with animal protocols approved by the Harvard Medical Area Standing Committee on Animals or BWH IACUC.
Fluorescence-activated cell sorting of innate lymphoid cells. After dissociation, single cell suspensions were incubated with CD90.2 MicroBeads (Miltenyi Biotec) on ice and enriched for CD90.2^+ cells by magnetic separation using LS columns according to the manufacturer's protocol. CD90.2^+ lung cells were then stained on ice with antibodies for sorting. ILCs were defined as 7AAD^− CD45^+ CD90.2^+ CD127^+ Lineage (CD11b, CD11c, CD19, NK1.1, […], CD4, CD8a, TCRβ, TCRγδ)^− cells and sorted on a BD FACS Aria (BD Biosciences).
For full-length scRNA-Seq, single ILCs were sorted into 96-well plates containing 5 ul TCL Buffer (QIAGEN) with 1% 2-Mercaptoethanol, centrifuged and frozen at −80° C. SMART-Seq2 protocol was carried out as previously described^23 with minor modifications in the reverse transcription step. cDNA was amplified with 22 cycles and fragmented with one-eighth of the standard Illumina NexteraXT reaction volume. Single-cell libraries were pooled and paired-end sequenced (38 bp×2) with a 75 cycle Nextseq 500 high output V2 kit.
Analysis of SMART-Seq2 plate-based scRNA-Seq data. Reads were aligned to mm10 using Kallisto (Bray, N. L., Pimentel, H., Meisted, P. & Pachter, L. Near-optimal probabilistic RNA-seq quantification. Nat Biotechnol 134, 525-527, doi:10.1038/nbt.3519 (2016)) quant, version 0.42.3. The R package tximport (Soneson, C., Love, M. I. & Robinson, M. D. Differential analyses for RNA-seq: transcript-level estimates improve gene-level inferences [version 2; referees: 2 approved]. F1000Research 4, doi:10.12688/f1000research.7563.2 (2016)), version 1.2.0, was used to convert the output to gene counts and traditional TPM values. Because of the variability in read counts per cell across plates, even from the same condition, as well as in the number of genes per cell across conditions, QC was performed for each of eight plates individually in order to remove cells that were outliers with respect to either measure. Out of 752 cells, 606 cells met QC criteria (234 from control, 152 from IL-25 treated mice, and 220 from IL-33 treated mice), and the number of genes per cell in this set ranged from 1,625 to 6,375. Genes that were not expressed with log(TPM)>2.5 in at least two cells were removed from further analysis. Subsequent analysis proceeded analogously to the droplet-based RNA-seq analysis, with parameter settings that reflected both the wider dynamic range of expression and much smaller cell numbers. The minimum ILC signature score required in ILC type assignment was 0.3. Variable genes were identified by running MeanVarPlot with x.low.cutoff=0.1, y.cutoff=1.5, and x.high.cutoff=10, resulting in a set of 519 genes. […]

B1: IL25 (protein, UniProt Q8VHH8 17-169, looked up)
Interleukin-25: VSLRIQEGCSHLPSCCPSKEQEPPEEWLKWSSASVSPPEPLSHTHHAESCRASKDGPLNSRAISPWSYELDRDLNRVPQDLYHARCLCPHCVSLQTGSHMDPLGNSVPLYHNQTVFYRRPCHGEEGTHRRYCLERRLYRVSLACVCVRPRVMA
  Med16 expression coeff: −0.61
  Mfsd1 expression coeff: 1.25
  Mgat1 expression coeff: 1.24
  Mgat5 expression coeff: 1.02
  Mier3 expression coeff: −0.901
  Mkl2 expression coeff: −1.12
  Mlec expression coeff: 0.715
  Morc3 expression coeff: 0.662
  Mov10 expression coeff: 1.08
  Mplkip expression coeff: −0.607
  Mrp63 expression coeff: 1.09
  Mrpl40 expression coeff: −0.837
  Mrpl52 expression coeff: 0.158
  Mrpl53 expression coeff: −1.87
  Mrps18a expression coeff: −1.24
  Ms4a4b expression coeff: 3.49
  Ms4a6b expression coeff: 3.22
  Mtfmt expression coeff: −2.15
  Mxd1 expression coeff: 0.448
  Mybbp1a expression coeff: −0.514
  Myg1 expression coeff: −1.33
  Myo1f expression coeff: 0.897
  Myo1g expression coeff: 0.257
  Naa60 expression coeff: 0.241
  Nbn expression coeff: −0.499
  Ndufaf3 expression coeff: 1.45
  Neu3 expression coeff: −2.64
  Nfil3 expression coeff: 2.04
  Nipal1 expression coeff: 1.61
  Nlrc5 expression coeff: 0.93
  Nol6 expression coeff: −1.65
  Nol9 expression coeff: −0.775
  Nop56 expression coeff: −0.619
  Npc2 expression coeff: 0.143
  Npnt expression coeff: 0.056
  Nrip1 expression coeff: 0.668
  Nsmaf expression coeff: 1.41
  Oas1a expression coeff: 0.0294
  Ogfr expression coeff: 0.578
  Omd expression coeff: −1.12
  Parp3 expression coeff: 0.335
  Parp10 expression coeff: 0.371
  Parp14 expression coeff: 0.934
  Paxip1 expression coeff: −1.15
  Pdcd1 expression coeff: 1.04
  Pde4b expression coeff: 0.735
  Per1 expression coeff: −0.785
  Pfas expression coeff: −0.546
  Phc3 expression coeff: 0.476
  Phf11a expression coeff: 1.52
  Phf11b expression coeff: 1.38
  Picalm expression coeff: 1.79
  Pigv expression coeff: −2.73
  Pin4 expression coeff: 0.928
  Plac8 expression coeff: 0.268
  Plekha5 expression coeff: −1.01
  Plxdc2 expression coeff: −0.906
  Pml expression coeff: 1.04
  Ppif expression coeff: −1.14
  Ppp1r15a expression coeff: 0.186
  Pydc4 expression coeff: 1.52
  Pyhin1 expression coeff: 0.623
  Rab7l1 expression coeff: 1.18
  Rab8b expression coeff: 1.5
  Rab33b expression coeff: −1.3
  Rdh1 expression coeff: −2.49
  Rdh13 expression coeff: −1.37
  Rilpl2 expression coeff: 1.4
  Rnf125 expression coeff: 1.65
  Rtp4 expression coeff: 0.866
  Samd9l expression coeff: 0.773
  Sbno2 expression coeff: 1.09
  Sdc4 expression coeff: 0.206
  Sdccag3 expression coeff: 0.312
  Sema4a expression coeff: −0.348
  Sema4d expression coeff: 0.548
  Sesn3 expression coeff: 0.328
  Shank2 expression coeff: −3.19
  Sipa1 expression coeff: 1.56
  Slc25a24 expression coeff: 0.607
  Slc44a2 expression coeff: 0.294
  Slfn2 expression coeff: 0.267
  Smn1 expression coeff: −1.53
  Sntb1 expression coeff: 1.29
  Soat1 expression coeff: 0.339
  Socs1 expression coeff: −1.36
  Socs2 expression coeff: −0.923
  Socs3 expression coeff: 1.02
  Sp100 expression coeff: 0.451
  Sptssa expression coeff: −0.974
  Ssr3 expression coeff: 0.609
  St3gal6 expression coeff: −0.764
  Stab1 expression coeff: 1.24
  Stat1 expression coeff: 1.88
  Syt11 expression coeff: 0.291
  Taf1d expression coeff: 1.28
  Tango6 expression coeff: −1.32
  Tap1 expression coeff: 0.561
  Tap2 expression coeff: 0.406
  Tet3 expression coeff: 1.62
  Tmem33 expression coeff: 1.18
  Tmem176a expression coeff: −0.146
  Tmem176b expression coeff: −0.422
  Tmem209 expression coeff: −0.847
  Tmem229b expression coeff: 0.199
  Tnfrsf18 expression coeff: −1.25
  Tnfsf10 expression coeff: −1.18
  Tpm4 expression coeff: 0.311
  Tradd expression coeff: 0.964
  Trafd1 expression coeff: 0.993
  Trim12c expression coeff: 0.974
  Trim30a expression coeff: 1.17
  Trim34a expression coeff: 0.632
  Trim30d expression coeff: 0.527
  Trip13 expression coeff: −1.91
  Trp53inp1 expression coeff: 1.28
  Ttc19 expression coeff: 0.891
  Ttc39b expression coeff: 0.546
  Ube2h expression coeff: 0.767
  Usp18 expression coeff: 1.1
  Usp36 expression coeff: −0.645
  Vdr expression coeff: −0.748
  Vmp1 expression coeff: 1.49
  Xrcc3 expression coeff: −1.4
  Zbp1 expression coeff: 0.971
  Zc3h12a expression coeff: −1.14
  Zcchc10 expression coeff: −1.82
  Zfand6 expression coeff: 0.659
  Zfc3h1 expression coeff: 0.466
  Zfp110 expression coeff: −0.396
  Zfp825 expression coeff: −1.4
